Biological target: Human GRLBD-F602S (520-778), glucocorticoid receptor ligand binding domain (human) (UniProt P04150)
Sequence of UniProt P04150 (P04150 520-777 F602S): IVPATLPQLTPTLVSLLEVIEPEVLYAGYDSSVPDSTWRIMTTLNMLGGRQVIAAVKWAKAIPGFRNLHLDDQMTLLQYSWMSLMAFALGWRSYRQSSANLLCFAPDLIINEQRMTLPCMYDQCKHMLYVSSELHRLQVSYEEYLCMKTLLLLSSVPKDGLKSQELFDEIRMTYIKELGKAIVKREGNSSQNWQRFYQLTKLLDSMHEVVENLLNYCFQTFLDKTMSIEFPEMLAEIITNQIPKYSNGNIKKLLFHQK

In the case of “Human Hsp90β (from UniProt P08238 1-724) (natural protein)”, the relaxation energy of the GRLBD chain with hHsp90 in absence of ATP is reported as 42 KBT.
